Results as given in PMC4014539, “PEG-Protein Interaction Induced Contraction of NalD Chains” (PLoS ONE, 2014).

Molecular target: the molecule itself
Experiment: AUC; Beckman Optima XL-I, UV detection at 280 nm, 45,000 rpm, 20°C; NalD in aqueous solution before addition of PEG3350; apparent molar masses from peak positions

B1: NalD (natural protein)
chain: MRRTKEDSEKTRTAILLAAEELFLEKGVSHTSLEQIARAAGVTRGAVYWHFQNKAHLFNEMLNQVRLPPEQLTERLSGCDGSDPLRSLYDLCLEAVQSLLTQEKKRRILTILMQRCEFTEELREAQERNNAFVQMFIELCEQLFARDECRVRLHPGMTPRIASRALHALILGLFNDWLRDPRLFDPDTDAEHLLEPMFRGLVRDWGQASSAP
notes: NalD, TetR family repressor of the MexAB-OprM multi-drug efflux operon, Pseudomonas aeruginosa PAO1; a protein of 212 amino acids; nalD gene amplified by PCR and cloned into PET-30a between NdeI and XhoI; also called NalD protein; regulator of MexAB-OprM multi-drug efflux systems; source: E. coli BL21 star (DE3), purified (SFF, Heparin, Ni-NTA, monoQ columns)
- binding result: binds
